Test results as given in patent US11098333B2, “ATP phosphoribosyltransferase variant and method for producing L-histidine using the same” (priority 2017, dated 2021).
Residue numbers refer to the chain shown, from its start. Names may count otherwise.

B1: HisG (N215R/G233H/T235Q): ATP phosphoribosyltransferase variant N215R/G233H/T235Q, SEQ ID NO: 1 (protein)
chain: MLKIAVPNKGSLSERAMEILAEAGYAGRGDSKSLNVFDEANNVEFFFLRPKDIAIYVAGGQLDLGITGRDLARDSQADVHEVLSLGFGSSTFRYAAPADEEWSIEKLDGKRIATSYPNLVRDDLAARGLSAEVLRLDGAVEVSIKLGVADAIADVVSTGRTLRQQGLAPFGEVLCTSEAVIVGRKDEKVTPEQQILLRRIQGILHAQNFLMLDYRVDRDNLDAATAVTPGLSHPQVSPLARDNWVAVRAMVPRRSANAIMDKLAGLGAEAILASEIRIARI
modifications: HisG
B2: HisG (N215R): ATP phosphoribosyltransferase variant with N215R substitution (protein)
chain: B1 chain with H233G, Q235T
B3: HisG (N215K/L231F/T235A): known HisG variant N215K/L231F/T235A (Biochimie. 2012 March; 94(3):829-38) (protein)
chain: B1 chain with R215K, L231F, H233G, Q235A
B4: HisG (N215K/G233H/T235Q): ATP phosphoribosyltransferase variant N215K/G233H/T235Q (protein)
chain: B1 chain with R215K
B5: HisG (N215R/L231F/T235A): ATP phosphoribosyltransferase variant N215R/L231F/T235A (protein)
chain: B1 chain with L231F, H233G, Q235A
B6: HisG: wild-type Corynebacterium glutamicum ATP phosphoribosyltransferase, SEQ ID NO: 13 (protein)
chain: B1 chain with R215N, H233G, Q235T
modifications: HisG
B7: HisG (G233H/T235Q): ATP phosphoribosyltransferase variant with G233H and T235Q substitutions (protein)
chain: B1 chain with R215N

Test system: ATP phosphoribosyltransferase (HisG)
Assay: Measurement of activities of ATP phosphoribosyltransferases (UV 290 nm, cell supernatant)
Type: biochemical, Corynebacterium glutamicum
Settings: 30° C., UV 290 nm, no L-histidine
Procedure: Corynebacterium glutamicum ATCC 13032 and the strains HCJ-96, HCJ-161, HCJ-162, HCJ-163, HCJ-164, and HCJ-165 selected in Example 3 were each inoculated into a corner-baffle flask (250 mL) containing a seed medium (25 mL), and were cultured at 30° C. for 20 hours with shaking at 200 rpm to obtain a seed culture solution. Thereafter, the seed culture solution (1 mL) was inoculated into a corner-baffle flask (250 mL) containing a production medium (24 mL), and was cultured at 30° C. for 45 hours at 200 rpm. After the culture, the obtained cells were sonicated and centrifuged, and the supernatant obtained therefrom was used for evaluation of the activity of ATP phosphoribosyltransferase.
The activities of the ATP phosphoribosyltransferase variants obtained in Example 4-1 and that of a wild-type ATP phosphoribosyltransferase variant were measured. The evaluation of the activities of these enzymes was performed with reference to the conditions described in an existing literature report (Biochimie. 2012 March; 94(3):829-38.).
For the evaluation of the activities of the enzymes, the supernatant was quantified to give the same concentration. These enzymes were used as sample enzymes, and the reaction conditions were as follows: the reaction compositions were mixed to the quantified protein (0.05 mg) to give a total amount of 500 μL, and then measured at 30° C. at a UV wavelength of 290 nm for 90 seconds. With regard to the wild-type ATP phosphoribosyltransferase having low activity, the supernatant protein (0.3 mg) was used and measured at a UV wavelength of 290 nm for 30 minutes for the activity evaluation. The composition of the reaction solution for measuring the activities of the enzymes is as follows: […]

| Molecule | Activity of ATP phosphoribosyltransferase (HisG) [U/mg] |
| --- | --- |
| B1 | 2.082 |
| B2 | 0.021 |
| B3 | 0.387 |
| B4 | 1.3 |
| B5 | 0.408 |
| B6 | 0.013 |
| B7 | 1.381 |

Same assay, conditions: relative to wild-type enzyme

| Molecule | activity fold higher than that of the wild-type enzyme |
| --- | --- |
| B1 | about 160 fold |

Biological target: T1, ATP phosphoribosyltransferase (HisG) (Corynebacterium glutamicum, UniProt Q9Z472, G233H/N215R/T235Q)
T1 construct: made in house; host or cells: Corynebacterium glutamicum ATCC 13032 (wild type) and HCJ-96, -161, -162, -163, -164, -165 (chromosomal hisG alleles); unpurified supernatant of sonicated cells
Assay: Degree of inhibition by L-histidine on activities of ATP phosphoribosyltransferase variants
Type: biochemical
Settings: L-histidine 100 mM
Procedure: (§1) For the evaluation of the activities of the enzymes, the supernatant was quantified to give the same concentration. These enzymes were used as sample enzymes, and the reaction conditions were as follows: the reaction compositions were mixed to the quantified protein (0.05 mg) to give a total amount of 500 μL, and then measured at 30° C. at a UV wavelength of 290 nm for 90 seconds. With regard to the wild-type ATP phosphoribosyltransferase having low activity, the supernatant protein (0.3 mg) was used and measured at a UV wavelength of 290 nm for 30 minutes for the activity evaluation. The composition of the reaction solution for measuring the activities of the enzymes is as follows:
(§2) The degree of inhibition by L-histidine on the activities of ATP phosphoribosyltransferase and the ATP phosphoribosyltransferase variants obtained in Example 4-1 was measured. Specifically, the activities of these enzymes were measured in the reaction composition solution of Example 4-2, which contained L-histidine (0 mM, 50 mM, or 100 mM), using the method described in Example 4-2. […] However, the activities of the ATP phosphoribosyltransferase variants were less inhibited by L-histidine.

| Molecule | activity in composition solution containing L-histidine (in words) |
| --- | --- |
| B1 | showed the highest activity |

Test system: ATP phosphoribosyltransferase (HisG)
Assay: as above
Type: biochemical, Corynebacterium glutamicum
Settings: L-histidine 0 mM
Procedure: as §1, §2

| Molecule | Activity of Enzyme, 0 mM L-histidine [U/mg] |
| --- | --- |
| B1 | 2.082 |
| B2 | 0.021 |
| B3 | 0.387 |
| B4 | 1.3 |
| B5 | 0.408 |
| B6 | 0.013 |
| B7 | 1.381 |

Same assay, conditions: L-histidine 50 mM

| Molecule | Activity of Enzyme, 50 mM L-histidine [U/mg] |
| --- | --- |
| B1 | 1.435 |
| B2 | 0 |
| B3 | 0.202 |
| B4 | 0.679 |
| B5 | 0.157 |
| B6 | 0 |
| B7 | 0.64 |

Same assay, conditions: L-histidine 100 mM

| Molecule | Activity of Enzyme, 100 mM L-histidine [U/mg] |
| --- | --- |
| B1 | 1.335 |
| B2 | 0 |
| B3 | 0.023 |
| B4 | 0.413 |
| B5 | 0 |
| B6 | 0 |
| B7 | 0.542 |

Biological target: T2, ATP phosphoribosyltransferase (HisG) (Corynebacterium glutamicum, UniProt Q9Z472)
T2 construct: made in house; host or cells: Corynebacterium glutamicum ATCC 13032 (wild type) and HCJ-96, -161, -162, -163, -164, -165 (chromosomal hisG alleles); unpurified supernatant of sonicated cells
T2 sequence (Q9Z472 whole entry, looked up): B1 chain with R215N, H233G, Q235T
Assay: as above
Type: biochemical
Settings: L-histidine 50 mM and 100 mM
Procedure: as §1, §2

| Molecule | inhibition of enzyme activity by L-histidine (in words) |
| --- | --- |
| B6 | completely inhibited |
